Source: PMC12102759

B1: KIAA1671 peptide 600-615 (Uncharacterized protein KIAA1671), 16-mer library wild type / MDM2 SWIB (MDM2 SWIB/MDM2 domain, residues 17-125) (parent)
chain 1: TPEDDRSFQTVWATVF
chain 2: SQIPASEQETLVRPKPLLLKLLKSVGAQKDTYTMKEVLFYLGQYIMTKRLYDEKQQHIVYCSNDLLGDLFGVPSFSVKEHRKIYTMIYRNLVVVNQQESSDSGTSVSEN
B2: PEX5 peptide 108-123 (Peroxisomal targeting signal 1 receptor), 16-mer library wild type / PEX14 Pex14 (PEX14 PEX14, residues 16-84) (parent)
chain 1: GVADLALSENWAQEFL
chain 2: TPGSENVLPREPLIATAVKFLQNSRVRQSPLATRRAFLKKKGLTDEEIDMAFQQSGTAADEPSSLGPAT
B3: SH3BP2 peptide 408-423 (SH3 domain-binding protein 2), 16-mer library wild type / TNKS ANK (TNKS 12 ANK repeats, residues 174-649) (parent)
chain 1: PQLPHLQRSPPDGQSF
chain 2: TGVPAVSGALRELLEACRNGDVSRVKRLVDAANVNAKDMAGRKSSPLHFAAGFGRKDVVEHLLQMGANVHARDDGGLIPLHNACSFGHAEVVSLLLCQGADPNARDNWNYTPLHEAAIKGKIDVCIVLLQHGADPNIRNTDGKSALDLADPSAKAVLTGEYKKDELLEAARSGNEEKLMALLTPLNVNCHASDGRKSTPLHLAAGYNRVRIVQLLLQHGADVHAKDKGGLVPLHNACSYGHYEVTELLLKHGACVNAMDLWQFTPLHEAASKNRVEVCSLLLSHGADPTLVNCHGKSAVDMAPTPELRERLTYEFKGHSLLQAAREADLAKVKKTLALEIINFKQPQSHETALHCAVASLHPKRKQVTELLLRKGANVNEKNKDFMTPLHVAAERAHNDVMEVLHKHGAKMNALDTLGQTALHRAALAGHLQTCRLLLSYGSDPSIISLQGFTAAQMGNEAVQQILSESTPIRTSD
B4: AMOTL2 peptide 66-81 (Angiomotin-like protein 2), 16-mer library wild type / TNKS ANK (TNKS 12 ANK repeats, residues 174-649) (parent)
chain 1: LQQATRQEPQGQEHQG
chain 2: B3 chain 2

Variants of: B1
Experiment: proteomic peptide phage display deep mutational scan (ProP-PD DMS): M13 P8 16-mer library selected against immobilised GST-tagged bait for four days (rounds), NGS of the eluted pools per day and pseudo-replica
Details: with MDM2 SWIB (MDM2 SWIB/MDM2 domain, residues 17-125); bait immobilised on MaxiSorp plates (10 µg), library pre-cleared on GST, 2 h binding at 4 °C, five washes; one round per day, days 1-4; value from days 2 and 3; keep out of graded; scale: average fractional NGS count over selection days 2 and 3

Screen value of substitutions, site by site:
chain 1 S7: T 6.52e-05 | N 5.84e-05 | L 0.000105 | Q 0.000194 | W 0.000517 | F 3.36e-05 | K 6.18e-05
chain 1 V11: I 0.00157 | Q 0.00061 | A 0 | L 0.000339 | H 0.0015 | T 0 | W 0.00167 | N 0 | Y 0.000214
chain 1 F16: W 1.6e-05 | G 0 | M 4.28e-05 | A 0 | I 5.77e-05 | D 0
chain 1 V15: M 8.76e-05 | A 0.000191 | P 0 | S 2.82e-05 | F 0.000104 | W 0.000109
chain 1 R6: Q 0.000155 | S 0.00021 | Y 0.000693 | F 0.000483 | L 0.000264 | M 0.000232 | G 9.01e-05 | H 0.000397 | V 0.000461 | K 0.000243 | A 0.000223 | E 6.31e-05
chain 1 F8: A 0.00012 | N 0.000113 | R 0 | M 0.000128 | P 7.93e-05 | W 0.000346
chain 1 T14: E 0.000268 | W 0.000103 | Y 0.000108 | N 0.000664 | I 3.81e-05 | R 0.00282 | V 1.9e-05 | Q 3.86e-05 | H 4.28e-05 | D 9.35e-05 | M 0.00063
chain 1 D4: M 4.28e-05 | T 0.00033 | A 0.00011 | I 8.68e-05 | Y 2.12e-05 | P 0.000107 | S 0.0004 | G 0.000914 | V 0.000129
chain 1 A13: I 0.000104 | T 0.00011 | S 0.000227 | N 0.000173 | V 4.31e-05 | H 0.000327 | Q 5.55e-05 | D 1.83e-05 | M 0.000146 | W 0.000391 | L 9.44e-05 | G 0 | P 0
chain 1 P2: V 3.63e-05 | Q 9.58e-05 | S 7.3e-05 | F 5.33e-05 | H 4.89e-05 | L 6.52e-05 | E 6.83e-05 | M 0.000288 | D 6.18e-05 | Y 0.000913 | G 0.000243 | R 3.9e-05
chain 1 W12: K 9.9e-05 | N 0 | R 0 | T 9.54e-05
chain 1 T10: W 0.000295 | S 0.000471 | H 0.000113 | L 6.08e-05 | D 1.9e-05 | F 0.000114 | A 0.000165
chain 1 E3: L 0.000185 | K 0.000111 | R 0.000648 | I 0.000166 | T 0.000371 | Y 0.00068 | A 0.00018 | P 5.24e-05 | Q 4.56e-05 | F 1.83e-05 | W 0.000218 | V 0.00284 | H 0.000765 | G 0.000104
chain 1 D5: T 0.000201 | Y 8.89e-05 | A 0.000323 | V 0.000143 | S 0.00089 | L 0.000477 | K 1.66e-05 | F 3.53e-05 | H 6.55e-05 | W 0.000664 | P 0.000202 | G 0.00021 | M 0.000189 | I 1.66e-05 | Q 2.45e-05
chain 1 Q9: P 7.92e-05 | G 0.000111 | D 0 | S 8.1e-05 | M 0.000681 | F 5.33e-05 | E 8.49e-05 | N 0 | A 0.000111 | L 0.00104 | T 4.79e-05 | W 0.000575

Variants of: B2
Experiment: as above
Details: with PEX14 Pex14 (PEX14 PEX14, residues 16-84); bait immobilised on MaxiSorp plates (10 µg), library pre-cleared on GST, 2 h binding at 4 °C, five washes; one round per day, days 1-4; value from days 2 and 3; scale: average fractional NGS count over selection days 2 and 3

Screen value of substitutions, site by site:
chain 1 A12: D 0 | F 0.000389 | V 0 | G 0.000152 | W 6.63e-05 | H 0.000439 | S 0.000254 | R 0 | I 0.000211 | T 0.000373 | P 0
chain 1 A3: S 0.000118 | R 0 | W 7.47e-05 | D 0 | K 0.000328 | H 0.000109 | Q 0.000248 | F 0 | E 7.71e-05 | P 0.000212
chain 1 L5: F 0 | D 0.000324
chain 1 F15: H 0.00727 | Y 0 | I 0 | W 0.000382 | L 0.000134 | K 0
chain 1 E14: V 0.000334 | A 0.00268 | F 0.000333 | Y 0.00013 | T 0.000432 | L 0.000529 | S 0.00161 | R 0.00542 | I 0.000908 | H 0.000765 | P 0 | G 0.000243 | Q 0.00136 | D 0.000196 | W 0.00347 | K 0.00049
chain 1 D4: P 0 | I 9.56e-05 | W 0.000313 | E 0.000293 | L 0.00112 | S 0.00106 | T 0 | A 0.000207 | N 0 | K 0 | Q 0.000734 | V 0
chain 1 A6: V 0 | E 0 | Y 0 | F 0.000385 | H 0.000488 | Q 0.000383 | L 0.000211
chain 1 E9: S 0 | I 0 | M 0.000152 | N 0.000239 | R 0 | V 0.000378 | L 0.000321 | Q 0 | F 0.000305 | Y 9.07e-05 | G 0.000125 | T 9.07e-05 | D 0.000711

Variants of: B3
Experiment: as above
Details: with TNKS ANK (TNKS 12 ANK repeats, residues 174-649); bait immobilised on MaxiSorp plates (10 µg), library pre-cleared on GST, 2 h binding at 4 °C, five washes; one round per day, days 1-4; value from days 2 and 3; keep out of graded; scale: average fractional NGS count over selection days 2 and 3

Screen value: each site, then its substitutions
chain 1 S9: G 7.17e-05 | R 9.97e-05
chain 1 P11: S 2.19e-05 | F 3.04e-05 | M 0 | L 0 | T 7.13e-05 | E 0 | H 0 | I 0 | Q 0
chain 1 R8: W 0 | H 0 | Y 0 | A 0 | S 8.91e-05 | F 0
chain 1 D12: T 6.11e-05 | F 0 | P 4.27e-05 | Y 3.32e-05 | H 5.06e-05
chain 1 H5: M 6.6e-05 | D 5.12e-05 | N 3.1e-05 | W 7.66e-05 | E 9.9e-05 | L 0.000101 | A 0.000105
chain 1 S15: G 9.21e-05
chain 1 L3: D 9.07e-05 | W 5.02e-05 | G 6.04e-05
chain 1 Q14: W 0.000114 | P 3.92e-05 | D 6.15e-05
chain 1 Q7: N 0.000104 | R 0.000135 | P 3e-05
chain 1 L6: I 6.25e-05 | K 8.36e-05
chain 1 G13: W 0 | A 0 | Q 0
chain 1 Q2: W 3.04e-05
chain 1 F16: S 9.92e-05 | K 4.17e-05
chain 1 P10: M 0.000103 | R 5.9e-05
chain 1 P4: R 3.21e-05 | K 0.000103 | F 5.23e-05

Variants of: B4
Experiment: as above
Details: with TNKS ANK (TNKS 12 ANK repeats, residues 174-649); bait immobilised on MaxiSorp plates (10 µg), library pre-cleared on GST, 2 h binding at 4 °C, five washes; one round per day, days 1-4; value from days 2 and 3; keep out of graded; scale: average fractional NGS count over selection days 2 and 3

Screen value of substitutions, site by site:
chain 1 L1: R 2.19e-05
chain 1 H14: Y 8.4e-05 | D 0 | T 3.21e-05 | P 6.39e-05
chain 1 R6: S 6.11e-05 | E 0 | K 0 | L 0
chain 1 A4: E 4.24e-05
chain 1 Q15: K 5.01e-05
chain 1 Q10: M 4.87e-05 | P 6.1e-05 | K 0 | V 6.99e-05 | T 3.04e-05 | R 3.15e-05 | A 2.19e-05 | F 0
chain 1 E13: R 0 | T 1.94e-05 | W 1.87e-05 | D 6.42e-05 | F 1.87e-05 | P 3.32e-05 | G 5.19e-05 | K 0
chain 1 Q3: M 3.03e-05 | R 0 | I 0.000108 | E 9.57e-05 | K 2.25e-05
chain 1 P9: Y 0 | G 0 | I 6.68e-05 | V 9.22e-05 | S 0 | L 0
chain 1 G11: N 5.06e-05 | L 0
chain 1 T5: A 2.97e-05 | R 0 | P 5.25e-05 | K 6.67e-05 | E 5.19e-05
chain 1 E8: I 6.96e-05 | N 0.000167
chain 1 Q12: D 0 | N 2.19e-05 | S 5.26e-05 | G 3.04e-05 | K 5.3e-05 | T 9.71e-05 | E 4.24e-05 | V 6.42e-05
chain 1 Q2: F 3.49e-05 | R 0
chain 1 Q7: S 0.000105 | R 0 | D 2.19e-05 | E 2.83e-05 | I 0.0001
